These results are taken from article PMC4835091.

Experiment [1] concerns the target T1, ZapD (purified), P36680.
T1 chain: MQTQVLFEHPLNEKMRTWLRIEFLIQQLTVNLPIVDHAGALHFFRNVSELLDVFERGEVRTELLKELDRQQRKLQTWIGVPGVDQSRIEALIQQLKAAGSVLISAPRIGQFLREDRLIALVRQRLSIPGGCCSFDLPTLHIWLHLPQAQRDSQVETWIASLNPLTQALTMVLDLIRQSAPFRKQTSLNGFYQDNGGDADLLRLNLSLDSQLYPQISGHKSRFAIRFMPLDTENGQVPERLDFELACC
Kind of experiment: co-sedimentation assay, SDS-PAGE quantification. The conditions noted are these: chain shown with the change, 50 mM K-MOPS pH 6.5, 50 mM KCl, 2.5 mM MgCl2, 1 mM GTP, 3 µM BSA, read off a plot.

The target of experiment [2] is T2, FtsZ(NRNKRG) (purified), P0A9A6.
T2 chain: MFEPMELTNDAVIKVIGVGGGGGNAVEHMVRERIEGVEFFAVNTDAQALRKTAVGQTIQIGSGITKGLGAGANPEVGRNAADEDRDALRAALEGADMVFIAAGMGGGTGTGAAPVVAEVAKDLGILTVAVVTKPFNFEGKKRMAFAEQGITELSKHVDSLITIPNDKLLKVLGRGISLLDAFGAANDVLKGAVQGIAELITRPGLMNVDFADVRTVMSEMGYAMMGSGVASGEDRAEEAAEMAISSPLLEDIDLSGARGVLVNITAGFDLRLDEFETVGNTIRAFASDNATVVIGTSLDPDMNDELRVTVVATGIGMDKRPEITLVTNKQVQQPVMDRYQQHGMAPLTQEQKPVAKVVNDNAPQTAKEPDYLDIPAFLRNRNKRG
Kind of experiment: sedimentation (co-pelleting) assay, SDS-PAGE quantification. The conditions noted are these: chain shown with the change, 50 mM K-MOPS pH 6.5, 50 mM KCl, 2.5 mM MgCl2, 1 mM GTP, 3 µM BSA, read off a plot.

B1: FtsZ (purified, WT), P0A9A6 CTV KQAD (380-383) replaced by NRNKRG (protein)
chain: T2 chain
Regarding B1, the response (% ZapD in pellet) worked out at 17 in experiment [1] (5 µM FtsZ with ZapD at 1:0.2, parent: est. 62) and 23 in experiment [1] (5 µM FtsZ with ZapD at 1:1, parent: est. 55). Moreover, the response (% FtsZ in pellet) turned out to be 34 in experiment [2] (5 µM FtsZ with ZapD at 1:0.2, parent: est. 44); 36 in experiment [2] (5 µM FtsZ with ZapD at 1:1, parent: est. 73); 31 in experiment [2] (5 µM FtsZ, no ZapD, parent: est. 26).
